Literature values as cited in article PMC12787518.
Where two headings read alike, the source gives them in different places.

Tests used:
Asp70 = Asp70 (UniProt position 70, KLFNQDVDAAV); settings: folded (native, Asp70-His31 salt bridge formed)
His31 = His31 (UniProt position 31, TIGIGHLLTKS)

Substance: T4 lysozyme (Enterobacteria phage T4 (Tequatrovirus T4))
- pKa (Asp70): 0.5
- pKa (His31; folded (native, Asp70-His31 salt bridge formed)): 9.1
- pKa (His31; unfolded (before folding, no salt bridge), inferred from the wording 'during ... folding'): 6.8
